The supplement of paper PMC11136658

Tested on: peptide library, one residue held at a place counted from the Y acceptor
Assay: relative phosphorylation of the sub-library (ratio to the mean residue at this position); higher = residue favoured
Method in brief: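 Within 384-well plates, purified recombinant kinases phosphorylated biotinylated Tyr-centred peptide library mixtures over 90 min using 50 μM ATP spiked with γ-32P-ATP; each mixture fixed one residue at one position from −5 to +5. Streptavidin membrane capture, rinsing, phosphorimaging and ImageQuant gave the intensities. These were normalized per position to the sum of the 18 randomized residues (16 for the Ser/Thr-free library) and multiplied by that number.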

Chain of FGFR2, construct: aa285-end, human (P21802 285-821, looked up): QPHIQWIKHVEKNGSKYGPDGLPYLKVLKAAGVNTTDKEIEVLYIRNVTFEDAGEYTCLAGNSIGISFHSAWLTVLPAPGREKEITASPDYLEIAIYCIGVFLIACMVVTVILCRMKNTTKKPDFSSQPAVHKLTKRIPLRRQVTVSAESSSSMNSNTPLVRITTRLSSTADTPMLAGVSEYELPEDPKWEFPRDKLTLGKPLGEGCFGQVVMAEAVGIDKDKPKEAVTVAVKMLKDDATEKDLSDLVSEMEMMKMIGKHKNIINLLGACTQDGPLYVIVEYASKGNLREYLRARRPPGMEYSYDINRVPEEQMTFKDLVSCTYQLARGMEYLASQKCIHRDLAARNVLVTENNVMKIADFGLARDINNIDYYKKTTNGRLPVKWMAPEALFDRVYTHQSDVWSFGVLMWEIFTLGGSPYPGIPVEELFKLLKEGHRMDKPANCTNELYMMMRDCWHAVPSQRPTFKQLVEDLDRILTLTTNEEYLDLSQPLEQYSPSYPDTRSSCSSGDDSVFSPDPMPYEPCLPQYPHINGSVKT
Chain of FGFR3, construct: aa397-end, human (P22607 397-806, looked up): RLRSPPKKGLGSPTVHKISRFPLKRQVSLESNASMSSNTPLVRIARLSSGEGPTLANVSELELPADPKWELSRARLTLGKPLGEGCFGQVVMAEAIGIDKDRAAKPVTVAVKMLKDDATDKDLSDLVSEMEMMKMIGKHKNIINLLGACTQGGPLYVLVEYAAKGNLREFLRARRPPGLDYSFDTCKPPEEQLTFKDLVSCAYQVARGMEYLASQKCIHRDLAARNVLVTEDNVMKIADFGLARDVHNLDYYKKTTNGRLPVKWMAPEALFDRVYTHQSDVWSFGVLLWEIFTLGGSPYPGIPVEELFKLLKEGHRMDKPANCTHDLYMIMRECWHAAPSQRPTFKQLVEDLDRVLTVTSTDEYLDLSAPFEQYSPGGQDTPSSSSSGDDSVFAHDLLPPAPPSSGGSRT
Chain of FGFR1, construct: aa456-765, human (P11362 456-765, looked up): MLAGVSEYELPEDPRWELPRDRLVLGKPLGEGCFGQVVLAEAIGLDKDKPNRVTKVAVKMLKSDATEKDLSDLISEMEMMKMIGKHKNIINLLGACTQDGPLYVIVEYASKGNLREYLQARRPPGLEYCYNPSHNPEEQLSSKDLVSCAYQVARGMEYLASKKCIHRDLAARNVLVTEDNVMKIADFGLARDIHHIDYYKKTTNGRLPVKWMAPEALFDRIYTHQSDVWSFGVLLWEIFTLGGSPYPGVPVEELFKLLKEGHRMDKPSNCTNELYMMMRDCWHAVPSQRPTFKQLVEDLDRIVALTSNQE

FGFR1, construct: aa456-765, human (from UniProt P11362)
relative phosphorylation
Settings | at +1 | at +2 | at +3 | at +4 | at +5 | at -1 | at -2 | at -3 | at -4 | at -5
A fixed | 1.01 | 0.593 | 0.546 | 0.853 | 0.912 | 0.836 | 0.925 | 0.939 | 1.11 | 1.05
D fixed | 0.332 | 0.728 | 0.463 | 0.791 | 1.17 | 2.09 | 1.05 | 1.22 | 1.02 | 1.05
E fixed | 0.68 | 1.06 | 0.407 | 0.769 | 1.06 | 1.29 | 1.17 | 1.23 | 1.09 | 0.859
F fixed | 1.81 | 1.68 | 1.57 | 1.12 | 0.897 | 1.06 | 0.673 | 0.814 | 0.905 | 0.897
G fixed | 0.332 | 0.406 | 0.514 | 1.27 | 1.22 | 0.557 | 1.19 | 1.08 | 1.22 | 1.12
H fixed | 1.62 | 0.924 | 0.968 | 1.06 | 0.867 | 1.17 | 1.17 | 1.03 | 1.05 | 1.05
I fixed | 1.66 | 1.14 | 2.43 | 1.13 | 0.744 | 1.3 | 0.907 | 0.816 | 0.823 | 0.921
K fixed | 0.379 | 0.581 | 0.302 | 0.866 | 0.903 | 0.461 | 1.03 | 1.01 | 1.02 | 1.12
L fixed | 0.938 | 1.35 | 1.79 | 1.13 | 0.737 | 0.921 | 0.829 | 0.69 | 0.769 | 0.891
M fixed | 1.07 | 1.07 | 1.65 | 0.981 | 0.822 | 0.758 | 0.826 | 0.917 | 0.803 | 0.95
N fixed | 0.428 | 0.954 | 0.415 | 0.758 | 0.999 | 1.35 | 1.25 | 1.34 | 1.02 | 1.24
P fixed | 1.13 | 0.702 | 0.621 | 1.3 | 1.72 | 0.954 | 0.919 | 0.962 | 1.22 | 0.954
Q fixed | 0.794 | 0.963 | 0.796 | 0.955 | 0.999 | 1.09 | 1.24 | 1.05 | 1.2 | 1.19
R fixed | 0.494 | 0.669 | 0.494 | 0.914 | 1.05 | 0.354 | 0.969 | 0.95 | 1.04 | 1.29
S fixed | 0.888 | 0.818 | 0.6 | 1.01 | 1.14 | 0.678 | 1.2 | 1.19 | 0.918 | 0.988
T fixed | 0.98 | 0.762 | 0.774 | 0.836 | 1.02 | 0.77 | 0.995 | 0.916 | 0.768 | 0.741
V fixed | 1.67 | 1.09 | 1.78 | 1 | 0.84 | 1.21 | 0.9 | 0.84 | 0.789 | 0.753
W fixed | 1.78 | 2.51 | 1.87 | 1.26 | 0.908 | 1.15 | 0.748 | 1.01 | 1.23 | 0.949
pThr fixed | 0.496 | 0.942 | 0.298 | 0.559 | 1.03 | 0.884 | 0.846 | 0.938 | 0.771 | 0.696
pTyr fixed | 2.43 | 2.39 | 0.408 | 0.758 | 0.987 | 2.02 | 1.13 | 1.06 | 1.07 | 0.764

FGFR2, construct: aa285-end, human (from UniProt P21802)
relative phosphorylation
Settings | at +1 | at +2 | at +3 | at +4 | at +5 | at -1 | at -2 | at -3 | at -4 | at -5
A fixed | 0.967 | 0.586 | 0.554 | 0.848 | 1 | 0.772 | 0.949 | 0.935 | 1.13 | 0.929
D fixed | 0.362 | 0.991 | 0.671 | 0.93 | 1.01 | 2.28 | 1.18 | 1.26 | 1 | 1.09
E fixed | 0.774 | 1.54 | 0.515 | 1.11 | 0.972 | 1.41 | 1.42 | 1.53 | 1.14 | 0.89
F fixed | 1.69 | 1.57 | 1.53 | 1.06 | 0.992 | 0.988 | 0.642 | 0.852 | 0.949 | 0.962
G fixed | 0.345 | 0.353 | 0.495 | 0.981 | 1.32 | 0.506 | 1.09 | 1.09 | 1.2 | 1.27
H fixed | 1.84 | 0.971 | 0.988 | 1.14 | 0.943 | 1.51 | 1.28 | 1.16 | 1.2 | 1.21
I fixed | 1.33 | 0.926 | 1.89 | 0.883 | 0.836 | 1.23 | 0.679 | 0.697 | 0.773 | 0.806
K fixed | 0.55 | 0.524 | 0.303 | 0.868 | 0.819 | 0.5 | 1.19 | 1.01 | 1.13 | 1.33
L fixed | 0.929 | 1.24 | 1.96 | 0.885 | 0.927 | 0.94 | 0.78 | 0.685 | 0.81 | 0.824
M fixed | 1.06 | 1.41 | 1.87 | 1.01 | 0.979 | 0.689 | 0.674 | 0.774 | 0.812 | 0.842
N fixed | 0.472 | 1.01 | 0.488 | 0.865 | 0.987 | 1.3 | 1.14 | 1.28 | 0.939 | 1.05
P fixed | 1.11 | 0.612 | 0.666 | 1.16 | 1.47 | 0.815 | 1.08 | 0.924 | 1.17 | 1.01
Q fixed | 0.953 | 0.78 | 0.776 | 0.97 | 0.832 | 1.04 | 1.12 | 0.892 | 1.03 | 0.952
R fixed | 0.706 | 0.758 | 0.551 | 1.39 | 0.884 | 0.495 | 1.24 | 1.12 | 1.26 | 1.34
S fixed | 0.733 | 0.665 | 0.545 | 0.966 | 1.02 | 0.681 | 1.14 | 1.13 | 0.854 | 0.939
T fixed | 0.901 | 0.827 | 0.737 | 0.918 | 0.983 | 0.805 | 0.939 | 1.08 | 0.721 | 0.883
V fixed | 1.55 | 1.02 | 1.62 | 0.872 | 1.05 | 0.97 | 0.752 | 0.662 | 0.757 | 0.714
W fixed | 1.72 | 2.22 | 1.84 | 1.14 | 0.977 | 1.08 | 0.697 | 0.912 | 1.12 | 0.969
pThr fixed | 0.729 | 1.43 | 0.766 | 0.731 | 0.782 | 1.25 | 1 | 1.1 | 0.883 | 0.849
pTyr fixed | 2.75 | 2.82 | 0.616 | 1.15 | 0.835 | 2.48 | 1.25 | 1.2 | 1.1 | 0.913

FGFR3, construct: aa397-end, human (from UniProt P22607)
relative phosphorylation
Settings | at +1 | at +2 | at +3 | at +4 | at +5 | at -1 | at -2 | at -3 | at -4 | at -5
A fixed | 0.858 | 0.5 | 0.465 | 0.794 | 1.13 | 0.737 | 0.867 | 0.899 | 1.1 | 0.986
D fixed | 0.4 | 1.08 | 0.618 | 1.07 | 1.09 | 2.51 | 1.3 | 1.51 | 1.22 | 1.19
E fixed | 0.764 | 1.5 | 0.479 | 1.15 | 0.944 | 1.71 | 1.58 | 1.73 | 1.42 | 1.01
F fixed | 1.96 | 1.73 | 1.58 | 1.17 | 1.08 | 0.94 | 0.733 | 0.807 | 0.933 | 0.929
G fixed | 0.32 | 0.27 | 0.378 | 0.913 | 1.22 | 0.452 | 1.05 | 0.939 | 1.25 | 1.15
H fixed | 1.7 | 0.959 | 0.873 | 1.1 | 0.962 | 1.47 | 1.2 | 1.17 | 1.07 | 1.2
I fixed | 1.19 | 0.857 | 2.07 | 0.872 | 0.763 | 1.1 | 0.57 | 0.533 | 0.738 | 0.651
K fixed | 0.452 | 0.502 | 0.297 | 0.913 | 0.753 | 0.438 | 1.05 | 0.976 | 0.935 | 1.27
L fixed | 1.01 | 1.46 | 2.18 | 0.962 | 0.881 | 1.05 | 0.863 | 0.663 | 0.759 | 0.75
M fixed | 1.17 | 1.46 | 2.26 | 1.06 | 1.05 | 0.766 | 0.761 | 0.747 | 0.901 | 0.854
N fixed | 0.458 | 1.01 | 0.416 | 0.828 | 0.943 | 1.33 | 1.24 | 1.35 | 0.924 | 1.15
P fixed | 1.1 | 0.528 | 0.562 | 1.13 | 1.22 | 0.786 | 0.951 | 0.904 | 1.2 | 1.08
Q fixed | 0.865 | 0.85 | 0.68 | 1.05 | 0.923 | 0.896 | 1.14 | 1.01 | 1.1 | 1.01
R fixed | 0.577 | 0.607 | 0.428 | 0.953 | 0.814 | 0.396 | 1.1 | 1.04 | 1.01 | 1.27
S fixed | 0.709 | 0.566 | 0.481 | 0.931 | 1.07 | 0.614 | 1.09 | 1.17 | 0.867 | 0.971
T fixed | 0.867 | 0.712 | 0.604 | 0.814 | 1.03 | 0.797 | 1.01 | 0.946 | 0.704 | 0.82
V fixed | 1.59 | 0.952 | 1.61 | 0.948 | 0.939 | 0.885 | 0.732 | 0.595 | 0.7 | 0.682
W fixed | 2 | 2.47 | 2.02 | 1.34 | 1.18 | 1.14 | 0.767 | 1.02 | 1.17 | 1.02
pThr fixed | 0.874 | 1.88 | 0.666 | 0.864 | 0.943 | 1.61 | 1.28 | 1.44 | 1.2 | 1.16
pTyr fixed | 3.07 | 3.28 | 0.631 | 0.962 | 1 | 3.24 | 1.85 | 1.83 | 1.55 | 1.31
